# B1: human chemokine receptor CXCR4 fused to the N-terminus of GFP or TagRFP, P61073 1-352 (receptor)
# chain: MEGISIYTSDNYTEEMGSGDYDSMKEPCFREENANFNKIFLPTIYSIIFLTGIVGNGLVILVMGYQKKLRSMTDKYRLHLSVADLLFVITLPFWAVDAVANWYFGNFLCKAVHVIYTVNLYSSVLILAFISLDRYLAIVHATNSQRPRKLLAEKVVYVGVWIPALLLTIPDFIFANVSEADDRYICDRFYPNDLWVVVFQFQHIMVGLILPGIVILSCYCIIISKLSHSKGHQKRKALKTTVILILAFFACWLPYYIGISIDSFILLEIIKQGCEFENTVHKWISITEALAFFHCCLNPILYAFLGAKFKTSAQHALTSVSRGSSLKILSKGKRGGHSSVSTESESSSFHSS
# Key:
# [1] = molecular target: T1, human chemokine receptor CXCR4 fused to the N-terminus of GFP or TagRFP (human), P61073; assay: FRET or BRET; details: remark: other sources report otherwise
# T1 chain: B1 chain
# [2] = molecular target: T1, human chemokine receptor CXCR4 fused to …; assay: FRET or BRET; details: remark: other sources report otherwise
binder,measurement,setting,value
B1,FRET efficiency,[1],10.9%
same,FRET efficiency,[2],10.4%
